This is an account of results in patent publication US20220275092A1 (F STAR THERAPEUTICS, published 2022).

For one assay, the target named is T1, mouse PD-L1 (mouse, UniProt Q9EP73 19-239, limits assumed).
T1 construct: also called mPD-L1
The assay is described as follows: Biacore (SPR). For orientation: Surface plasmon resonance follows binding to a sensor surface in real time, without labels.

The next assay addresses T2, mouse LAG-3 (mouse, UniProt Q61790 24-442, limits assumed).
T2 construct: also called mLAG-3
T2 sequence (looked up): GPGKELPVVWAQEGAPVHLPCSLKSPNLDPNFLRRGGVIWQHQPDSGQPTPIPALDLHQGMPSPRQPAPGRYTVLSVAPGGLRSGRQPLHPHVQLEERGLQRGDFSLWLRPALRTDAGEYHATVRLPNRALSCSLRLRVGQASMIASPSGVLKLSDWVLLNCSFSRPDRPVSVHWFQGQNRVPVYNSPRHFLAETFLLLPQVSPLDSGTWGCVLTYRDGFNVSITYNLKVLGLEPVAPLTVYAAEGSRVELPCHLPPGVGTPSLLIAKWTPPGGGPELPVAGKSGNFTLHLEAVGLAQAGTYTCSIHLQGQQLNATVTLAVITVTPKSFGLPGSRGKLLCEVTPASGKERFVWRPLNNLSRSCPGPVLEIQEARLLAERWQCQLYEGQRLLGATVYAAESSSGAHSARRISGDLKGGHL
Kind of assay: Biacore (SPR).

T1 sequence (Q9EP73 19-239 limits assumed): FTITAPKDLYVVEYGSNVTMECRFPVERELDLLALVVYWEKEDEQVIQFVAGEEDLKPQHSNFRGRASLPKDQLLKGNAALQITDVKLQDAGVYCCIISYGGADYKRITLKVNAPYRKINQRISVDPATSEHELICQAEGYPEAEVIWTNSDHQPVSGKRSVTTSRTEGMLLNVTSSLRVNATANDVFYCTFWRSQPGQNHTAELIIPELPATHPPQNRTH

B1: anti-mouse LAG-3/PD-L1 mAb^2 FS18-7-108-29/S1 (with LALA mutation) (bispecific antibody, V domains shown)
VH: not shown
VL: DIQMTQSPSSLSASVGDRVTITCRASQDVSTAVAWYQQKPGKAPKLLIYSASFLYSGVPSRFSGSGSGTDFTLTISSLQPEDFATYYCQQYLFTPPTFGQGTKVEIKR
notes: also called mouse surrogate mAb^2; mLAG-3/PD-L1
B1: the “Biacore binding affinity, fold higher than the binding of FS118 to hPD-L1” value with mouse PD-L1 was about 10 fold. Moreover, in the assay with mouse LAG-3, the “Biacore binding affinity, fold lower than the binding of FS118 to hLAG-3” value was about 20 fold.
